Test results reported in publication PMC8885668, “A high-performance electrochemical aptasensor based on graphene-decorated rhodium nanoparticles to detect HER2-ECD oncomarker in liquid biopsy”.

Molecular target: HER2-ECD (recombinant human HER2/ErbB2/CD340) (human, UniProt P04626 23-652)
Assay: electrochemical aptasensor (DPV); Rh-NPs/rGONs graphite electrode; linear 10-500 ng/mL; LOD 0.665 ng/mL (0.667 in abstract), not a Kd; DPV in 0.1 M PBS pH 7.4, 5.0 mM K4[Fe(CN)6]/K3[Fe(CN)6] (1:1), 0.1 M KCl; 50 nM aptamer immobilized; 40 min protein incubation; BSA-blocked; binding temperature not stated
Conditions: protein: commercial; predicted double stem-loop; text also claims G-quadruplex

B1: anti-HER2 aptamer (ssDNA)
DNA: GGGCCGTCGAACACGAGCATGGTGCGTGGACCTAGGATGACCTGAGTACTGTCC
modifications: 5' NH2-(CH2)6, amide-coupled to MPA on electrode
- binding result: binds
